Results reported in patent US20230374564.

Molecular target: T1, VWF73-G6PDH conjugate (inhibited G6PDH-VWF reporter enzyme complex), P11411
T1 chain 1: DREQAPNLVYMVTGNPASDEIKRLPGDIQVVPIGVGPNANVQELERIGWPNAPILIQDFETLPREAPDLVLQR
T1 chain 2: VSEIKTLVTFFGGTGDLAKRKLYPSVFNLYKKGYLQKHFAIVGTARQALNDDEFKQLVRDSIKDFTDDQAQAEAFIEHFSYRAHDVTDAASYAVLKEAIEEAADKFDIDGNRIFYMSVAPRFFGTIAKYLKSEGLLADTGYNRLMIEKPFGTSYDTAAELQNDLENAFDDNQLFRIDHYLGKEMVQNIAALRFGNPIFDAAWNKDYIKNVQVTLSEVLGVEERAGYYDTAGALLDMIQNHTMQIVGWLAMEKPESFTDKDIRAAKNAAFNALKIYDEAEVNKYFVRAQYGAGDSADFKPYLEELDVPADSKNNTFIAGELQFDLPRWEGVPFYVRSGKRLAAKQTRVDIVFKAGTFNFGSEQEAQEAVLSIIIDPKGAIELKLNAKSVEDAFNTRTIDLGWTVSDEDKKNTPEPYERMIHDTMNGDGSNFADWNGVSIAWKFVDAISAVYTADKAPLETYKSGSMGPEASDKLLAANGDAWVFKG

B1: ADAMTS-13 (A Disintegrin And Metalloproteinase with a Thrombospondin type 1 motif, member 13) (protein)
chain: AAGGILHLELLVAVGPDVFQAHQEDTERYVLTNLNIGAELLRDPSLGAQFRVHLVKMVILTEPEGAPNITANLTSSLLSVCGWSQTINPEDDTDPGHADLVLYITRFDLELPDGNRQVRGVTQLGGACSPTWSCLITEDTGFDLGVTIAHEIGHSFGLEHDGAPGSGCGPSGHVMASDGAAPRAGLAWSPCSRRQLLSLLSAGRARCVWDPPRPQPGSAGHPPDAQPGLYYSANEQCRVAFGPKAVACTFAREHLDMCQALSCHTDPLDQSSCSRLLVPLLDGTECGVEKWCSKGRCRSLVELTPIAAVHGRWSSWGPRSPCSRSCGGGVVTRRRQCNNPRPAFGGRACVGADLQAEMCNTQACEKTQLEFMSQQCARTDGQPLRSSPGGASFYHWGAAVPHSQGDALCRHMCRAIGESFIMKRGDSFLDGTRCMPSGPREDGTLSLCVSGSCRTFGCDGRMDSQQVWDRCQVCGGDNSTCSPRKGSFTAGRAREYVTFLTVTPNLTSVYIANHRPLFTHLAVRIGGRYVVAGKMSISPNTTYPSLLEDGRVEYRVALTEDRLPRLEEIRIWGPLQEDADIQVYRRYGEEYGNLTRPDITFTYFQPKPRQAWVWAAVRGPCSVSCGAGLRWVNYSCLDQARKELVETVQCQGSQQPPAWPEACVLEPCPPYWAVGDFGPCSASCGGGLRERPVRCVEAQGSLLKTLPPARCRAGAQQPAVALETCNPQPCPARWEVSEPSSCTSAGGAGLALENETCVPGADGLEAPVTEGPGSVDEKLPAPEPCVGMSCPPGWGHLDATSAGEKAPSPWGSIRTGAQAAHVWTPAAGSCSVSCGRGLMELRFLCMDSALRVPVQEELCGLASKPGSRREVCQAVPCPARWQYKLAACSVSCGRGVVRRILYCARAHGEDDGEEILLDTQCQGLPRPEPQEACSLEPCPPRWKVMSLGPCSASCGLGTARRSVACVQLDQGQDVEVDEAACAALVRPEASVPCLIADCTYRWHVGTWMECSVSCGDGIQRRRDTCLGPQAQAPVPADFCQHLPKPVTVRGCWAGPCVGQGTPSLVPHEEAAAPGRTTATPAGASLEWSQARGLLFSPAPQPRRLLPGPQENSVQSSACGRQHLEPTGTIDMRGPGQADCAVAIGRPLGEVVTLRVLESSLNCSAGDMLLLWGRLTWRKMCRKLLDMTFSSKTNTLVVRQRCGRPGGGVLLRYGSQLAPETFYRECDMQLFGPWGEIVSPSLSPATSNAGGCRLFINVAPHARIAIHALATNMGAGTEGANASYILIRDTHSLRTTAFHGQQVLYWESESSQAEMEFSEGFLKAQASLRGQYWTLQSWVPEMQDPQSWKGKEGT
ADAMTS-13 activity (% of the norm); plasma of TTP patient 01: TTP patient 01 with 9% of the norm
ADAMTS-13 activity (% of the norm); plasma of TTP patient 02: TTP patient 02 with 7% of the norm
ADAMTS-13 activity (% of the norm); plasma of patient with ADAMTS-13 autoantibodies: patient with 21% of the norm
reactivation of G6PDH activity by cleavage of coupled VWF73 (absorption at 340 nm): occurs in a concentration-dependent manner with respect to ADAMTS-13 activity
Δ mOD/min Average; 0% normal plasma in ADAMTS-13-deficient plasma: 208 Δ mOD/min
Δ mOD/min Average; 5% normal plasma in ADAMTS-13-deficient plasma: 215 Δ mOD/min
Δ mOD/min Average; 10% normal plasma in ADAMTS-13-deficient plasma: 220 Δ mOD/min
Δ mOD/min Average; 25% normal plasma in ADAMTS-13-deficient plasma: 232 Δ mOD/min
Δ mOD/min Average; 50% normal plasma in ADAMTS-13-deficient plasma: 256 Δ mOD/min
Δ mOD/min Average; 75% normal plasma in ADAMTS-13-deficient plasma: 286 Δ mOD/min
Δ mOD/min Average; 100% normal plasma in ADAMTS-13-deficient plasma: 311 Δ mOD/min
Δ mOD/min Average; plasma of Healthy donor 01: 310 Δ mOD/min
Δ mOD/min Average; plasma of Healthy donor 02: 311 Δ mOD/min
Δ mOD/min Average; plasma of Healthy donor 03: 307 Δ mOD/min
Δ mOD/min Average; plasma of Healthy donor 04: 310 Δ mOD/min
Δ mOD/min Average; plasma of Healthy donor 05: 314 Δ mOD/min
Δ mOD/min Average; plasma of Patient with ADAMTS-13 autoantibodies: 228 Δ mOD/min
Δ mOD/min Average; plasma of TTP patient 01: 218 Δ mOD/min
Δ mOD/min Average; plasma of TTP patient 02: 216 Δ mOD/min
Δ mOD/min Measurement 1; 0% normal plasma in ADAMTS-13-deficient plasma: 208 Δ mOD/min
Δ mOD/min Measurement 1; 5% normal plasma in ADAMTS-13-deficient plasma: 216 Δ mOD/min
Δ mOD/min Measurement 1; 10% normal plasma in ADAMTS-13-deficient plasma: 221 Δ mOD/min
Δ mOD/min Measurement 1; 25% normal plasma in ADAMTS-13-deficient plasma: 232 Δ mOD/min
Δ mOD/min Measurement 1; 50% normal plasma in ADAMTS-13-deficient plasma: 255 Δ mOD/min
Δ mOD/min Measurement 1; 75% normal plasma in ADAMTS-13-deficient plasma: 286 Δ mOD/min
Δ mOD/min Measurement 1; 100% normal plasma in ADAMTS-13-deficient plasma: 310 Δ mOD/min
Δ mOD/min Measurement 1; plasma of Healthy donor 01: 309 Δ mOD/min
Δ mOD/min Measurement 1; plasma of Healthy donor 02: 310 Δ mOD/min
Δ mOD/min Measurement 1; plasma of Healthy donor 03: 305 Δ mOD/min
Δ mOD/min Measurement 1; plasma of Healthy donor 04: 312 Δ mOD/min
Δ mOD/min Measurement 1; plasma of Healthy donor 05: 315 Δ mOD/min
Δ mOD/min Measurement 1; plasma of Patient with ADAMTS-13 autoantibodies: 227 Δ mOD/min
Δ mOD/min Measurement 1; plasma of TTP patient 01: 218 Δ mOD/min
Δ mOD/min Measurement 1; plasma of TTP patient 02: 220 Δ mOD/min
Δ mOD/min Measurement 2; 0% normal plasma in ADAMTS-13-deficient plasma: 208 Δ mOD/min
Δ mOD/min Measurement 2; 5% normal plasma in ADAMTS-13-deficient plasma: 216 Δ mOD/min
Δ mOD/min Measurement 2; 10% normal plasma in ADAMTS-13-deficient plasma: 221 Δ mOD/min
Δ mOD/min Measurement 2; 25% normal plasma in ADAMTS-13-deficient plasma: 233 Δ mOD/min
Δ mOD/min Measurement 2; 50% normal plasma in ADAMTS-13-deficient plasma: 257 Δ mOD/min
Δ mOD/min Measurement 2; 75% normal plasma in ADAMTS-13-deficient plasma: 288 Δ mOD/min
Δ mOD/min Measurement 2; 100% normal plasma in ADAMTS-13-deficient plasma: 312 Δ mOD/min
Δ mOD/min Measurement 2; plasma of Healthy donor 01: 310 Δ mOD/min
Δ mOD/min Measurement 2; plasma of Healthy donor 02: 311 Δ mOD/min
Δ mOD/min Measurement 2; plasma of Healthy donor 03: 309 Δ mOD/min
Δ mOD/min Measurement 2; plasma of Healthy donor 04: 311 Δ mOD/min
Δ mOD/min Measurement 2; plasma of Healthy donor 05: 312 Δ mOD/min
Δ mOD/min Measurement 2; plasma of Patient with ADAMTS-13 autoantibodies: 228 Δ mOD/min
Δ mOD/min Measurement 2; plasma of TTP patient 01: 219 Δ mOD/min
Δ mOD/min Measurement 2; plasma of TTP patient 02: 215 Δ mOD/min
Δ mOD/min Measurement 3; 0% normal plasma in ADAMTS-13-deficient plasma: 207 Δ mOD/min
Δ mOD/min Measurement 3; 5% normal plasma in ADAMTS-13-deficient plasma: 214 Δ mOD/min
Δ mOD/min Measurement 3; 10% normal plasma in ADAMTS-13-deficient plasma: 219 Δ mOD/min
Δ mOD/min Measurement 3; 25% normal plasma in ADAMTS-13-deficient plasma: 233 Δ mOD/min
Δ mOD/min Measurement 3; 50% normal plasma in ADAMTS-13-deficient plasma: 254 Δ mOD/min
Δ mOD/min Measurement 3; 75% normal plasma in ADAMTS-13-deficient plasma: 286 Δ mOD/min
Δ mOD/min Measurement 3; 100% normal plasma in ADAMTS-13-deficient plasma: 311 Δ mOD/min
Δ mOD/min Measurement 3; plasma of Healthy donor 01: 311 Δ mOD/min
Δ mOD/min Measurement 3; plasma of Healthy donor 02: 312 Δ mOD/min
Δ mOD/min Measurement 3; plasma of Healthy donor 03: 306 Δ mOD/min
Δ mOD/min Measurement 3; plasma of Healthy donor 04: 309 Δ mOD/min
Δ mOD/min Measurement 3; plasma of Healthy donor 05: 314 Δ mOD/min
Δ mOD/min Measurement 3; plasma of Patient with ADAMTS-13 autoantibodies: 229 Δ mOD/min
Δ mOD/min Measurement 3; plasma of TTP patient 01: 218 Δ mOD/min
Δ mOD/min Measurement 3; plasma of TTP patient 02: 214 Δ mOD/min
